Data published in the supplement of paper PMC10567573.

B1: VDR (parent)
chain: VTLELSQLSMLPHLADLVSYSIQK

Variants of: B1
Test: protein stability index of a GFP-peptide fusion (GPS, HEK-293T) (PSI 1-6); higher = more stable
Conditions: c terminus: a fixed tail appended
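Note: lentivirally expressed fusions sorted by FACS into six bins by GFP to DsRed ratio, PSI derived from sequencing read proportions per bin multiplied by bin number.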

Variant | protein stability index
VTLELSQLSMLPHLADLVSMSIQK [Y20M] | 2.91
VTLELSQLSMLPHLADLVSNSIQK [Y20N] | 1.81
VTLELSQLSMLPHLADLVSPSIQK [Y20P] | 2.3
VTLELSQLSMLPHLADLVSQSIQK [Y20Q] | 3.29
VTLELSQLSMLPHLADLVSRSIQK [Y20R] | 3.61
VTLELSQLSMLPHLADLVSSSIQK [Y20S] | 2.92
VTLELSQLSMLPHLADLVSTSIQK [Y20T] | 2.31
VTLELSQLSMLPHLADLVSWSIQK [Y20W] | 2.91
VTLELSQLSMLPHLADLVSYDIQK [S21D] | 3.11
VTLELSQLSMLPHLADLVSYEIQK [S21E] | 2.84
VTLELSQLSMLPHLADLVSYFIQK [S21F] | 3.64
VTLELSQLSMLPHLADLVSYGIQK [S21G] | 2.48
VTLELSQLSMLPHLADLVSYHIQK [S21H] | 2.5
VTLELSQLSMLPHLADLVSYIIQK [S21I] | 1.89
VTLELSQLSMLPHLADLVSYKIQK [S21K] | 2.89
VTLELSQLSMLPHLADLVSYMIQK [S21M] | 1.43
VTLELSQLSMLPHLADLVSYNIQK [S21N] | 3.47
VTLELSQLSMLPHLADLVSYPIQK [S21P] | 1.05
VTLELSQLSMLPHLADLVSYQIQK [S21Q] | 1.43
VTLELSQLSMLPHLADLVSYRIQK [S21R] | 2.13
VTLELSQLSMLPHLADLVSYVIQK [S21V] | 3.87
VTLELSQLSMLPHLADLVSYWIQK [S21W] | 3.16
VTLELSQLSMLPHLADLVSYYIQK [S21Y] | 2.45
VTLELSQLSMLPHLADLVSYSAQK [I22A] | 1.56

Variant | protein stability index
VTLELSQLSMLPHLADLVSYSCQK [I22C] | 4.35
VTLELSQLSMLPHLADLVSYSDQK [I22D] | 2.23
VTLELSQLSMLPHLADLVSYSEQK [I22E] | 1.92
VTLELSQLSMLPHLADLVSYSFQK [I22F] | 2.12
VTLELSQLSMLPHLADLVSYSGQK [I22G] | 2.47
VTLELSQLSMLPHLADLVSYSHQK [I22H] | 2.34
VTLELSQLSMLPHLADLVSYSKQK [I22K] | 1.72
VTLELSQLSMLPHLADLVSYSMQK [I22M] | 3.49
VTLELSQLSMLPHLADLVSYSNQK [I22N] | 2.32
VTLELSQLSMLPHLADLVSYSPQK [I22P] | 1.55
VTLELSQLSMLPHLADLVSYSQQK [I22Q] | 2.74
VTLELSQLSMLPHLADLVSYSRQK [I22R] | 2.12
VTLELSQLSMLPHLADLVSYSSQK [I22S] | 1.79
VTLELSQLSMLPHLADLVSYSTQK [I22T] | 1.87
VTLELSQLSMLPHLADLVSYSVQK [I22V] | 4.61
VTLELSQLSMLPHLADLVSYSWQK [I22W] | 1.98
VTLELSQLSMLPHLADLVSYSYQK [I22Y] | 3.63
VTLELSQLSMLPHLADLVSYSICK [Q23C] | 2.33
VTLELSQLSMLPHLADLVSYSIEK [Q23E] | 3.09
VTLELSQLSMLPHLADLVSYSIFK [Q23F] | 4.15
VTLELSQLSMLPHLADLVSYSIGK [Q23G] | 2.84
VTLELSQLSMLPHLADLVSYSIHK [Q23H] | 5.2
VTLELSQLSMLPHLADLVSYSIIK [Q23I] | 2.56
